± gives the uncertainty stated by the source.

The data set in a line: amyloid nucleation score (Sup35N fusion, yeast selection) (log enrichment); library NNK1; higher = more nucleation; inactive = no reads after selection. In outline:
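Libraries of peptides of 20 random codons fused to Sup35N were expressed in psi-negative yeast and induced 24 hours with 100 μM copper sulfate. Selection was 7 days at 30°C on medium lacking adenine and uracil, and plasmid inserts were Illumina-sequenced before and after selection. Nucleation score is the DiMSum log enrichment of output over input reads, centred on the mode score of non-aggregating sequences, and sequences with under 100 input reads were left out.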

For NVWLWDTKFILQTRIPS, the amyloid nucleation score was -0.026 ± 1.7.

The substance EYWGRGEVRADMWRRWIGW yielded an amyloid nucleation score of 1.23 ± 0.4.

For LSIWFFVYVLVG, the amyloid nucleation score came out at 0.043 ± 0.78.

As for VSWENPSINLRRADLPCPLF, the amyloid nucleation score was found to be 0.521 ± 0.57.

In turn, GKYFLSICHDT had an amyloid nucleation score of 0.033 ± 0.36.

In the case of GVLGTGMRNCA, the amyloid nucleation score was found to be 0.277 ± 0.88.

As to ERFLFGSMSTYANGRCVGAY, the amyloid nucleation score is -1.11 ± 2.4.

As for WWIGNSTRYCVGMVWSI, the amyloid nucleation score result is “inactive”.

ACEKLQVNW returned an amyloid nucleation score of 0.329 ± 0.35.

Consider HGMWNGFTILM, for which the amyloid nucleation score came out at 3.26 ± 0.11.

Regarding SNGIQPMERI, the amyloid nucleation score was -1.01 ± 1.7.

Turning to YASSYNKRCNNVMNVVW, the amyloid nucleation score is -0.299 ± 0.25.

In the case of KRGLAVLGAPKQMQTACWGQ, the amyloid nucleation score was determined as 0.229 ± 0.83.

As for IVVGRGKQAIASMG, the amyloid nucleation score was -0.432 ± 0.89.

Consider YNFCILCSSPIIVFAAPVQR, for which the amyloid nucleation score is 8.034 ± 0.051.

The substance LGFACLSIILSRKSKMWDML displayed an amyloid nucleation score of 2.13 ± 0.11.

NNWSVQSGNFTFCSGRGLCS came in with an amyloid nucleation score of 7.438 ± 0.054.

Take SCLVWLFRCFFRTYQYYEFI: the amyloid nucleation score was determined as 0.253 ± 0.24.

Substance ILESRVPCCLKRGLNKEIGL had an amyloid nucleation score of 0.672 ± 0.46.

As to SYFWYCGPSDDYNKPSCSMW, the amyloid nucleation score was -0.441 ± 0.8.

As for TLPTKTTPSAFAVNEVTFLT, the amyloid nucleation score was -0.573 ± 0.4.

Regarding KAYRV, the amyloid nucleation score was -0.633 ± 0.39.

The substance TMDGHLGYRSRNILLLSVFV displayed an amyloid nucleation score of -0.41 ± 0.55.

Take SCLSRASIYSRFHSNLYVKM: the amyloid nucleation score result was “inactive”.

The substance GMEFMIMGNLVITGVIDKCH had an amyloid nucleation score of -0.262 ± 0.39.

CCPWEEHGICNEWRHRGSGT displayed an amyloid nucleation score of -0.199 ± 0.46.

As for YGEHMLVDRCMRWVSSFYRG, the amyloid nucleation score turned out to be 1.62 ± 0.3.

Turning to FTLCQASYMN, the amyloid nucleation score was -0.655 ± 0.67.

RYVSLDRPYTSNNNRYAKGV showed an amyloid nucleation score of 0.475 ± 0.22.

With FLAIILSWPFSAQFGFNVEG, the amyloid nucleation score amounted to 0.533 ± 0.62.

NLVAAYRY had an amyloid nucleation score of 0.146 ± 0.45.

As for RCLGVCYTLDVFRSRMLDKL, the amyloid nucleation score was -0.097 ± 0.44.

Substance MSYSMVNGDSTF showed an amyloid nucleation score of 2.33 ± 0.35.

MYLVVTVRFNWLPRDQFTVL yielded an amyloid nucleation score of 0.848 ± 0.37.

With LYYNFKF, the amyloid nucleation score amounted to 0.321 ± 0.33.

In turn, CVMWGTLRFLNLASGLFLCA showed an amyloid nucleation score of 0.778 ± 0.93.

Turning to ELTRGLWRFGAEWWATQQKT, the amyloid nucleation score came to 0.364 ± 0.31.

As to SFRCGSNNSIHD, the amyloid nucleation score is -2.02 ± 1.7.

As for NNCANIGRIEFMPGHYDMCV, the amyloid nucleation score was 1.11 ± 0.36.

In the case of TNRWADQTNKDAHRQTCD, the amyloid nucleation score is -0.591 ± 1.1.

The substance VVNVQMNQPYMQCFPQDTR registered an amyloid nucleation score of 3.93 ± 0.082.

HKTSKMLCLSI yielded an amyloid nucleation score of 0.241 ± 0.9.

Substance SRVNCYSSHSFSKYGRVGKS registered an amyloid nucleation score of -0.004 ± 0.59.

Substance VLFLTGFGNHSFRTDQMATG had an amyloid nucleation score of 0.287 ± 0.64.

In turn, IGCQLNIRVCLKVILLYVEA gave an amyloid nucleation score of 0.259 ± 0.95.

Take RKIVYVYEDVVRLNTCRISS: the amyloid nucleation score is 0.034 ± 0.93.

As to CQFDVGAQLAYYGR, the amyloid nucleation score result was “inactive”.

For VHGYL, the amyloid nucleation score was 0.067 ± 0.59.

With LILLLFEGFLLP, the amyloid nucleation score was 0.246 ± 0.63.

RVLDLKWPCYMGSVNLASRR displayed an amyloid nucleation score of 0.016 ± 0.74.

DKAFLWQFEELVAA showed an amyloid nucleation score of -0.331 ± 0.72.

As for SHYSSIVYGAMEDSGL, the amyloid nucleation score was -1.6 ± 2.4.

GLCDNHINVVVVS registered an amyloid nucleation score of 0.788 ± 0.81.

In turn, SWTGMNSHSLKKHLGI showed an amyloid nucleation score of -0.447 ± 0.93.

Take RADGLHASETVGSLL: the amyloid nucleation score is -1.13 ± 2.7.

The substance LNTQVRVGDKVCLRIFARLL showed an amyloid nucleation score of 0.944 ± 0.9.

CILRRMDADFIFIVCVDCFG had an amyloid nucleation score of -0.055 ± 0.4.

The substance VFSYGWLYQAPFFRFLHTGF yielded an amyloid nucleation score of 0.109 ± 0.74.

In turn, ISDFAYWQILCRVSDIFKVQ gave an amyloid nucleation score of 2.31 ± 0.13.

In turn, YDSSLMGVWMCGCIARWEVS had an amyloid nucleation score of -1.93 ± 2.7.

NRDQRKGIVFTWAVVEPKLP returned an amyloid nucleation score of 0.413 ± 0.97.

With TSFWLSVKSTNPFNRRQFSD, the amyloid nucleation score amounted to 0.436 ± 0.35.

In turn, KMKSEDT had an amyloid nucleation score of 1.07 ± 0.25.

AQSALLKS gave an amyloid nucleation score of -1.22 ± 1.2.

The substance PFVNW gave an amyloid nucleation score of 0.432 ± 0.84.

As for IVRDFMVLINR, the amyloid nucleation score was -0.911 ± 1.3.

LLVVRLNVCRRHMDFKYG had an amyloid nucleation score of -0.419 ± 0.39.

FNISFCIASSYVNTIGKQQG had an amyloid nucleation score of 3.32 ± 0.12.

Consider TCFTLGRPNSLFCDCIGHKS, for which the amyloid nucleation score is -0.011 ± 0.29.

Turning to GDVSRQTVEV, the amyloid nucleation score is -0.094 ± 0.43.

Regarding KYSLNM, the amyloid nucleation score is -0.872 ± 1.4.

As for MLPRPVRPVGGTRWESGVKL, the amyloid nucleation score is 0.548 ± 0.3.

As to NALASLKVMILDPTMELCCA, the amyloid nucleation score amounted to 0.996 ± 0.9.

IALRL: the amyloid nucleation score is 0.91 ± 0.4.

YRHTVIVY yielded an amyloid nucleation score of 1.13 ± 0.21.

Consider FVKFVTSEAFDHVLRTNWN, for which the amyloid nucleation score result is “inactive”.

PMIPKFMSERCQLIWWM showed an amyloid nucleation score of 0.961 ± 0.7.

With WRYRRCSYY, the amyloid nucleation score worked out at 0.781 ± 0.47.

SNVAVRTSCYTGARMYTRWW displayed an amyloid nucleation score of 1.94 ± 0.19.

In turn, HFFDCHNSIEVSLISSCVCV gave an amyloid nucleation score of 3.97 ± 0.065.

For ADPLMI, the amyloid nucleation score was -0.163 ± 0.28.

Substance LMTLLSSLSPAQSSLPT yielded an amyloid nucleation score of 1.27 ± 0.8.

LKNTVHWTADHFRVTSP displayed an amyloid nucleation score of -0.623 ± 0.67.

RLAVKDNVCKLDMMSGCCLS yielded an amyloid nucleation score of 5.45 ± 0.059.

On to ISMGWWIDYGPY, for which the amyloid nucleation score is -0.724 ± 0.81.

In turn, FEFDNR came in with an amyloid nucleation score of -0.003 ± 0.53.

Turning to HCPKAVGINEWPEMRFYVNL, the amyloid nucleation score was -0.05 ± 0.96.

For the substance LYQKHWVLSTALE, the amyloid nucleation score entry is “inactive”.

Consider NCHREFIHWVILNSGSSAHM, for which the amyloid nucleation score worked out at 1.94 ± 0.57.

Consider WVTHRL, for which the amyloid nucleation score was -0.715 ± 1.2.

The substance PYLVVVTHMAMASHWDLLLP registered an amyloid nucleation score of 0.25 ± 0.41.

On to SSSVYVVVEPDMNGLMGMRK, for which the amyloid nucleation score worked out at 0.08 ± 0.61.

As to GKFLRGGHLVFRWATLYLSV, the amyloid nucleation score is -0.604 ± 0.97.

The substance RIVEGWDTLSFLFRKGCEFF came in with an amyloid nucleation score of 1.2 ± 0.56.

In the case of CSCYRFLGDSKWIRHHINRT, the amyloid nucleation score was -0.679 ± 0.85.

In turn, RQTLEKF had an amyloid nucleation score of -0.168 ± 0.28.

On to ATCLLAFMNFVSILERRSES, for which the amyloid nucleation score was determined as 1.86 ± 0.21.

As for GVGEIVSNRFAIS, the amyloid nucleation score was -0.409 ± 1.

The substance MFSLYYPFSNWFDLI came in with an amyloid nucleation score of -0.001 ± 0.52.

KVPYLVDYISLVFFVFKVLF registered an amyloid nucleation score of -0.388 ± 0.34.

Substance QGILCFSIHSSNSMTGNTVF displayed an amyloid nucleation score of 0.038 ± 0.25.

VQNKYRFTLY registered an amyloid nucleation score of 1.65 ± 0.33.

With VLGMWIWQYRYGDDYFLLFV, the amyloid nucleation score was 2.7 ± 0.17.

Substance VQLRLMDRNREHYGYEESTR registered an amyloid nucleation score of 0.22 ± 0.43.

YPSCAGVWFKHNRLFFV returned an amyloid nucleation score of 0.096 ± 0.79.

Consider LWPTGSRLSDG, for which the amyloid nucleation score is -0.354 ± 0.51.

As for YAYFVSWGVFVIENVFPYKY, the amyloid nucleation score is -1.27 ± 0.66.

Regarding IIRGVTAGALFYYFSVILLR, the amyloid nucleation score is -0.214 ± 0.77.

As to KSTLVKHLNQYYRLVLMGPL, the amyloid nucleation score worked out at 1.1 ± 0.54.

SKSYVM returned an amyloid nucleation score of 0.468 ± 0.29.

Regarding MMKVIAANRVY, the amyloid nucleation score was 0.315 ± 0.63.

As to MYLVM, the amyloid nucleation score was found to be 0.191 ± 0.48.

For GRSCFGEHILNTPAISCNIT, the amyloid nucleation score is -0.288 ± 0.35.

HLGLSNPFMMSFHV returned an amyloid nucleation score of -0.189 ± 0.34.

In the case of SRISMVMVLSLFSVKFRWNP, the amyloid nucleation score was determined as 0.328 ± 0.24.

With YRLGSKISNSVKPRFDRLVE, the amyloid nucleation score result was “inactive”.

YTVPQSLSLLCSAYLILLDA registered an amyloid nucleation score of 0.561 ± 0.43.

As for GYCTPNDPVIFWDFRVMTGS, the amyloid nucleation score was -0.544 ± 0.3.

Substance ITMVISLCALFMSRSIIFKG yielded an amyloid nucleation score of -0.154 ± 1.

On to NSVFVPFGKEF, for which the amyloid nucleation score was -0.493 ± 0.39.

Turning to FQSISGFSATHWIFFMEGTY, the amyloid nucleation score amounted to 0.216 ± 0.45.

MLPMLQPTLQET had an amyloid nucleation score of 0.313 ± 0.42.

GSLSVAATSFTVMYRVKLVF gave an amyloid nucleation score of 0.085 ± 0.58.

For ALGYGIWGSICNWVWDPFTA, the amyloid nucleation score result is “inactive”.

For QGRLYSH, the amyloid nucleation score was 0.438 ± 0.39.

As for PGLLMNRVPVSSTQYIYLEQ, the amyloid nucleation score came out at 0.029 ± 0.75.

With GALSNSSMWFGMYVNPLGTY, the amyloid nucleation score entry is “inactive”.

In turn, VSCQQTFASLFFGILAGKSI came in with an amyloid nucleation score of -0.006 ± 0.54.

In the case of TGRVFLLYAAQ, the amyloid nucleation score was -0.368 ± 0.88.

QVYEDGRAICHLTLGRDCNL yielded an amyloid nucleation score of 2.22 ± 0.47.

Turning to NHEKGQRTVTMWLSLKDSMG, the amyloid nucleation score worked out at 3.02 ± 0.12.

As to IAIFMYCM, the amyloid nucleation score amounted to 7.467 ± 0.055.

For FSKTAGEVAYSLTESTDVRS, the amyloid nucleation score was -1.26 ± 0.88.

In turn, FGPGCCIFL gave an amyloid nucleation score of 7.481 ± 0.054.

For the substance LRHMLIAAFSDWVKYWGCAR, the amyloid nucleation score was found to be 0.194 ± 0.51.

For the substance QFMGCRFKLSDSSIWKKSLR, the amyloid nucleation score worked out at 0.381 ± 0.64.

As for LSYKIKDT, the amyloid nucleation score is 0.626 ± 0.72.

FSYRSIWLRVLRV displayed an amyloid nucleation score of -0.111 ± 0.4.

As for CGRKGEHIFYTTDNEYLNYV, the amyloid nucleation score stood at 0.211 ± 0.36.

In turn, TFTGDKIPIYSGVTVMASGM showed an amyloid nucleation score of 0.715 ± 0.84.

Substance KYDRNFNTRWGTKDVWTLAD showed an amyloid nucleation score of -0.065 ± 0.57.

The record behind these values is the supplement of paper PMC12042874.
